Reference: the supplement of paper PMC10567573
± gives the standard deviation.

Experiment: protein stability index of a GFP-peptide fusion (GPS, HEK-293T) (PSI 1-6); higher = more stable
[1] = treatment: DMSO, c terminus: a fixed tail appended
[2] = treatment: MLN4924 1 uM, 8 h, c terminus: a fixed tail appended
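Further: 24-mer peptide tiles fused after GFP, lentivirally expressed, FACS-sorted into six equal bins by GFP/DsRed ratio, decoded by Illumina sequencing, PSI is the read-weighted mean bin number.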

Sequence	protein stability index [1]	protein stability index [2]	protein stability index (treatment: DMSO, c terminus: native)	protein stability index (treatment: MLN4924 1 uM, 8 h, c terminus: native)
FEGEGDYEEGMYADWWQEPDAKGD [P3H4]	5.31 ± 0.12	5.35 ± 0.16	–	–
FFPMGDEGASSQIGRAAGTGFTVN [HDAC6]	3.46 ± 0.17	3.69 ± 0.15	–	–
FGAAGVNRLSIGLQSLDDTELRLL [RSAD1]	2.8 ± 0.094	2.76 ± 0.54	–	–
FGGSFMAPSPSPVTPAQNNLLQPN [SNAP91]	2.64 ± 0.59	3.09 ± 0.4	–	–
FHIFRTLEVNRLMGKLLQQPNTYA [PKD2L1]	2.46 ± 0.68	2.5 ± 0.26	–	–
FHKQQWFNCIRAAIAPFQSAGSPP [NET1]	2.69 ± 0.58	2.5 ± 0.3	–	–
FHNCLIQLYCEKVQGLMKEYLLSF [VPS39]	2.96 ± 0.26	3.2 ± 0.7	–	–
FIGETLLSMNWAIVADILLYVVIP [SPNS1]	3.29 ± 0.34	3.45 ± 0.25	–	–
FIWFVCSLVYYGLTLSAGDLGGSI [SLC22A15]	3.46 ± 0.52	3 ± 0.78	–	–
FIYSTWKGRTIYLEDIYVMPEYRG [SAT2]	3.21 ± 0.44	2.8 ± 0.52	–	–
FMEFYQDVKDWWLFGFYFCMPLVC [EDNRA]	3.155 ± 0.026	3.2 ± 0.56	–	–
FMHSRNLYILGNFMQLKCFSSQKL [PNLIPRP1]	3.11 ± 1.1	2.53 ± 0.74	–	–
FNSILPGVLILFLTFFAFLHCWLN [SOAT1]	2.22 ± 0.63	2.29 ± 0.36	–	–
FNYLHTNCFEITLELSCDKFPPEE [CPN1]	2.5 ± 0.51	2.09 ± 0.42	–	–
FNYSVGFKDLNESLNALEDQDLDA [APBB1IP]	4.13 ± 0.33	3.98 ± 0.68	–	–
FPGPQEHTQVLPDVRLLPRRLPLA [DYRK1B]	3.37 ± 0.083	3.58 ± 0.2	–	–
FRDAAEEGGTAVTGGQTVVNPWII [SEPHS2]	3.45 ± 0.2	3.54 ± 0.26	–	–
FRGFPPEDLMPLAAAYGHALEQYE [P3H4]	2.8 ± 0.36	3.08 ± 0.16	–	–
FRGQILGFWEEERPFWEEEKTFWK [CCDC70]	2.25 ± 0.33	2.28 ± 0.31	–	–
FRPYFTIHDSEFKEYTTRTQAPPS [DENND6A]	2.55 ± 0.23	2.71 ± 0.27	–	–
FSHDGLHVASLADDKMVRFWRIDE [WSB1]	2.44 ± 0.48	2.72 ± 0.52	–	–
FSQKHFPEVVQHEEFILLSQGEVE [KLHL12]	3.44 ± 0.81	3.45 ± 0.33	–	–
FTLGTNAIIISTIVLDRALHIPMY [OR10K2]	2.89 ± 0.82	2.87 ± 0.78	–	–

Sequence	protein stability index [1]	protein stability index [2]	protein stability index (treatment: DMSO, c terminus: native)	protein stability index (treatment: MLN4924 1 uM, 8 h, c terminus: native)
FVAFALCMFCLYSFMPLVIKVTSA [SLC35F2]	3.2 ± 0.44	3.32 ± 0.68	–	–
FYKREMFDPAEKYKMDHRRRGIAL [CASP6]	2.84 ± 0.2	2.78 ± 0.26	–	–
FYQAVRDLLPVWLLEDMRASEAFH [ANKRD9]	2.85 ± 0.47	2.59 ± 0.57	–	–
FYQSPYDSEQVPQALRRLRPRTRK [NCF4]	4.63 ± 0.37	4.68 ± 0.3	–	–
FYSQEWYARQHCPLKNPTFLDYVR [SOAT1]	2.4 ± 0.47	2.13 ± 0.25	–	–
GALWGLQAQAVQTEQAVALLRDRT [SCARA5]	3.07 ± 0.23	3.03 ± 0.31	–	–
GASSPAAYDEALAELHAHGPAAFV [ZSWIM9]	3.87 ± 0.22	3.99 ± 0.19	–	–
GAYSSASSFSRPLGYPYVNSVSSH [DLX1]	3.1 ± 0.15	3.12 ± 0.25	–	–
GDASECPQATNAKDSGCSSPGAH [PPEF2]	–	–	5.78 ± 0.1	5.57 ± 0.12
GDKGALQRLIVGNSALKDKEDQFG [INVS]	4.62 ± 0.21	4.72 ± 0.093	–	–
GEELADVGGVLRGLNHSLSYDVAL [SCARA5]	3.4 ± 0.17	3.41 ± 0.21	–	–
GEFRTGKTQICHTLAVTCQLPIDR [RAD51]	2.73 ± 0.52	3.02 ± 0.29	–	–
GGDEVDDSVSVNDIDLSLYIPRDV [ZC3H15]	4.62 ± 0.13	4.45 ± 0.61	–	–
GGFPIIRDQIFRYVHDPECVATTG [FBXO3]	2.14 ± 0.29	2.7 ± 0.57	–	–
GGGSYGKLFESVECYDPRTQQWTA [GAN]	3 ± 0.13	3.13 ± 0.29	–	–
GGPAQNAPHQQPPAPPSDALLDLH [TFE3]	5.06 ± 0.29	5.29 ± 0.2	–	–
GGSELGGWSLGRWTHDGIDINNNF [CPXM2]	3.06 ± 0.031	2.64 ± 0.054	–	–
GGVGYGDSKDCILEPLSLPESPGG [ZNF277]	4.43 ± 0.37	4.98 ± 0.19	–	–
GHLRGPEIRDWRGPQLEGEKDWGL [ZSWIM9]	3.66 ± 0.39	3.52 ± 0.47	–	–
GIAIVSVLVILISIVIFCLETLPE [KCNA3]	2.21 ± 0.26	2.36 ± 0.46	–	–
GIFKIEDSAQVARLWGIRKNRPAM [SPDEF]	2.71 ± 0.4	2.86 ± 0.3	–	–
GKTKKDYQEASNLEQFVTRFLLKE [NECAB1]	2.97 ± 0.3	3.36 ± 0.37	–	–
GLAFIAFTEAMTHFPASPFWSVMF [SLC6A17]	3.15 ± 0.1	3.13 ± 0.51	–	–

Sequence	protein stability index [1]	protein stability index [2]	protein stability index (treatment: DMSO, c terminus: native)	protein stability index (treatment: MLN4924 1 uM, 8 h, c terminus: native)
GLERRDWSPSPPATPEQGLSAFYL [SPDEF]	3.03 ± 0.25	2.84 ± 0.15	–	–
GLGFASNAFQETWYWHGDVNSNKV [LOXL2]	3.04 ± 0.12	2.44 ± 0.29	–	–
GLQAQILHCYRDRPHEVLLCSDLV [CHCHD6]	2.39 ± 0.39	2.16 ± 0.33	–	–
GLQLPSTLPVSGNLLDVYSSQGVA [TFE3]	3.15 ± 0.53	3.4 ± 0.36	–	–
GLRKRIATLFFHYIKTPLFNPEVA [IQUB]	2.12 ± 0.36	2.19 ± 0.74	–	–
GMANGQQWLQSTSGSQRHMVGQKD [TLE6]	4.49 ± 0.17	4.47 ± 0.29	–	–
GPGTPTGPSLPSKRESPGVGGGSG [ZBTB22]	5.14 ± 0.31	4.96 ± 0.27	–	–
GPLVPRLAGMANHGSPQLGEGMFQ [TBX5]	3.67 ± 0.26	3.75 ± 0.15	–	–
GPSVSEPPGLPRVSAYVDTTADLD [SPATS1]	5.16 ± 0.41	5.18 ± 0.25	–	–
GQTVTIWAANAGVTASPPTDLIWK [LMNB1]	2.37 ± 0.35	2.34 ± 0.32	–	–
GRDWRHLPTITSELSGAPRCHTVP [PXN]	3.44 ± 0.48	3.51 ± 0.17	–	–
GSEENGRYFSLSLMSGALAVNQKI [PCDHGC5]	2.49 ± 0.2	2.6 ± 0.23	–	–
GSIMTVWLSTAPTEPLTHWYQVRC [CARM1]	2.74 ± 0.99	2.84 ± 0.23	–	–
GSPEQLQIPVTDSGRHILEDSCAE [SDE2]	5.18 ± 0.27	5.5 ± 0.35	–	–
GSQIHDQFILRVSPDLEWHAACLK [ISL2]	2.3 ± 0.43	2.66 ± 0.54	–	–
GSQLEDQALRGLEGYTWRVAQLED [ZSWIM9]	3.98 ± 0.55	4.25 ± 0.2	–	–
GSTLAMLQRLKEQQFVIAGVLVED [ZBED1]	2.22 ± 0.46	2.1 ± 0.19	–	–
GTAFDAETDSEMNSQESRSDLEDM [SMG5]	5.63 ± 0.24	5.5 ± 0.49	–	–
GVCMGLVAAACACGFTVAQIITSL [OR10K2]	3.21 ± 0.34	3.04 ± 0.69	–	–
GVMLTWPDGLMYQKFRNQFLSFSM [TMEM120A]	2.89 ± 0.98	2.69 ± 0.43	–	–
GVSSVDSAFSSRGSLSLSFEREPS [RIPK4]	4.33 ± 0.77	4.8 ± 0.52	–	–
GWSKGFIGMHREMQVNPISKRMGP [RHOBTB1]	2.63 ± 0.32	2.61 ± 0.12	–	–
GYSLADWVCLAYFTSGFNAAALDY [SPACA3]	3.33 ± 0.44	2.98 ± 0.13	–	–

Sequence	protein stability index [1]	protein stability index [2]	protein stability index (treatment: DMSO, c terminus: native)	protein stability index (treatment: MLN4924 1 uM, 8 h, c terminus: native)
HAACLKCAECSQYLDETCTCFVRD [ISL2]	4.67 ± 0.22	4.83 ± 0.23	–	–
HAAQGGPLLCPGCQGQPQGKAVVS [ELOA2]	3.9 ± 0.36	4.09 ± 0.24	–	–
HALATRASDYSKKSNVLKLKTADW [PSD2]	3.13 ± 0.18	3.17 ± 0.17	–	–
HCKAGLGRTGTLIACYVMKHYRFT [CDC14A]	3.52 ± 0.52	2.76 ± 0.37	–	–
HECILPFVQVKGNFARLQTCISEL [M1AP]	2.21 ± 0.11	2.21 ± 0.13	–	–
HESQQLATETQALAQRTQQDSTRT [TEKT4]	5.41 ± 0.23	5.43 ± 0.074	–	–
HGPGHETPMTIPEFFRESVNRFGT [ACSBG2]	3.54 ± 0.29	3.6 ± 0.13	–	–
HGTKNVTNSSSLRLPRQNSDGGQK [WSB1]	4.96 ± 0.2	4.87 ± 0.47	–	–
HGVLSAEGFLFVFGGQDENKQTLS [GAN]	2.43 ± 0.27	2.65 ± 0.073	–	–
HHSHSGPEISRIIVDPTTGKRYCR [PLK2]	4.08 ± 0.16	4.32 ± 0.17	–	–
HIKEILITAGGENVPPIPVETLVK [ACSBG2]	2.71 ± 0.38	2.88 ± 0.2	–	–
HKVAPLVQSLCAKHGIEYQSKPLL [FADS1]	2.68 ± 0.34	3 ± 0.17	–	–
HLEYRFYKQLGSAGEGLPQVYYFG [CSNK1G1]	2.2 ± 0.47	2.15 ± 0.68	–	–
HLNRGNHEDHMVNLRYGFTKEVMN [PPEF2]	2.99 ± 0.3	3.16 ± 0.42	–	–
HLSSQQASGQSYSSREVFTSSSSS [KRT16]	4.63 ± 0.21	4.58 ± 0.17	–	–
HNCQLHRISFCADDKTDKRIFTFI [GULP1]	2.61 ± 0.36	2.4 ± 0.52	–	–
HNGKIYISGGVHNGEYVPWLYCYD [KLHL14]	2.13 ± 0.68	2.32 ± 0.48	–	–
HNIFLLGGSSTSERCLLNNSLWKK [NLN]	2.39 ± 0.13	2.24 ± 0.39	–	–
HNIVFGDYTWTEFDEPFLTRNVQS [TRIP13]	2.63 ± 0.06	2.61 ± 0.32	–	–
HPSGHWATCRLCGEQVGRGPGFHA [ZBED3]	2.52 ± 0.069	3.05 ± 0.29	–	–
